Where two headings read alike, the source gives them in different places. Each block holds one binder with its values, some of them ahead of it. Ends that are not written are not given here. * marks the point of attachment. Cholyl = C[C@H](CCC(=O)*)[C@H]1CC[C@H]2[C@@H]3[C@H](O)C[C@@H]4C[C@H](O)CC[C@]4(C)[C@H]3C[C@H](O)[C@]12C
Assays:
Assay in all cases: cell-based or functional assay
[1] = target: natural β-amyloid peptide β-AP1-40 (human)
[2] = target: natural β-amyloid peptide β-AP1-40 (human); remark: listed apart in the source
[3] = target: natural β-amyloid peptide β-AP1-40 (human); remark: listed apart in the source
[4] = target: natural β-amyloid peptide β-AP1-40 (human); remark: listed apart in the source
Target sequence in this assay (peptide, as listed by the source): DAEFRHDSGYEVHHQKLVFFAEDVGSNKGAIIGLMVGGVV

[5] = target: natural β-amyloid peptide β-AP1-40 (human); remark: listed apart in the source
Target sequence in this assay (peptide, as listed by the source): as above

Binder: Cholyl-HHQKLVFF [cholyl-Aβ13-20]
% Inhibition of Plateau; nucleation assay; 33 mole % [2]: ~0% | Fold Increase in Lag Time; nucleation assay; 33 mole % [2]: 2.6 fold | % Inhibition of Plateau; nucleation assay; 10 mole % [3]: 57% | Fold Increase in Lag Time; nucleation assay; 10 mole % [3]: 2.2 fold

Binder: DAEFRHDSGYKLVFFAEDVGSNKGAIIGLMVGGVV [Aβ1-10, 16-40(Δ11-15)]
% Inhibition of Plateau; nucleation assay; 100 mole % [1]: ~0% | Fold Increase in Lag Time; nucleation assay; 100 mole % [1]: ~1.2 fold

B1: cholyl-Aβ14-20 (peptide)
peptide: Cholyl-HQKLVFF-OH
SMILES: CC(C)C[C@H](NC(=O)[C@H](CCCCN)NC(=O)[C@H](CCC(N)=O)NC(=O)[C@H](Cc1c[nH]cn1)NC(=O)CC[C@@H](C)[C@H]1CC[C@H]2[C@@H]3[C@H](O)C[C@@H]4C[C@H](O)CC[C@]4(C)[C@H]3C[C@H](O)[C@]12C)C(=O)N[C@H](C(=O)N[C@@H](Cc1ccccc1)C(=O)N[C@@H](Cc1ccccc1)C(=O)O)C(C)C
% Inhibition of Plateau; nucleation assay; 33 mole % [2]: 49% | Fold Increase in Lag Time; nucleation assay; 33 mole % [2]: 2 fold | % Inucl'n; nucleation assay; 33 mole % [4]: 70% | ΔLag; nucleation assay; 33 mole % [4]: 2 ratio

Binder: DAEFRHDSGYEVHHQKLVFFSNKGAIIGLMVGGVV [Aβ1-20, 26-40(Δ21-25)]
% Inhibition of Plateau; nucleation assay; 100 mole % [1]: ~0% | Fold Increase in Lag Time; nucleation assay; 100 mole % [1]: 2.37 fold

Binder: DAEFRHDSGYEVHHQAEDVGSNKGAIIGLMVGGVV [Aβ1-15, 21-40(Δ16-20)]
% Inhibition of Plateau; nucleation assay; 100 mole % [1]: ~0% | Fold Increase in Lag Time; nucleation assay; 100 mole % [1]: 1.55 fold

Binder: Cholyl-KLVFF-OH [cholyl-Aβ16-20]
Fold Increase in Lag Time; nucleation assay; 38 mole % [2]: 3.4 fold | % Inhibition of Plateau; nucleation assay; 10 mole % [3]: 40% | % Inhibition of Plateau; nucleation assay; 100 mole % [3]: 100% | Fold Increase in Lag Time; nucleation assay; 10 mole % [3]: 2.4 fold | Fold Increase in Lag Time; nucleation assay; 100 mole % [3]: > 5 fold | % Iext'n; seeded extension assay; 25 mole % [4]: 11% | % Inucl'n; nucleation assay; 100 mole % [4]: 72% | ΔLag; nucleation assay; 100 mole % [4]: 1.8 ratio

Binder: DAEFRHDSGYEVHHQ [unmodified Aβ1-15]
% Inhibition of Plateau; nucleation assay; 100 mole % [1]: 18% | Fold Increase in Lag Time; nucleation assay; 100 mole % [1]: ~1 fold

Binder: Cholyl-HDSGYEVHHQKLVFF [cholyl-Aβ6-20]
% Inhibition of Plateau; nucleation assay; 100 mole % [5]: 100% | Fold Increase in Lag Time; nucleation assay; 100 mole % [5]: > 4.5 fold | % Inhibition of Plateau; nucleation assay; 100 mole % [2]: 100% | Fold Increase in Lag Time; nucleation assay; 10 mole % [2]: 2 fold | Fold Increase in Lag Time; nucleation assay; 100 mole % [2]: > 4.5 fold | % Inhibition of Plateau; nucleation assay; 10 mole % [3]: 43% | Fold Increase in Lag Time; nucleation assay; 10 mole % [3]: 2 fold

B2: cholyl-Aβ15-20 (peptide)
peptide: Cholyl-QKLVFF-OH
SMILES: CC(C)C[C@H](NC(=O)[C@H](CCCCN)NC(=O)[C@H](CCC(N)=O)NC(=O)CC[C@@H](C)[C@H]1CC[C@H]2[C@@H]3[C@H](O)C[C@@H]4C[C@H](O)CC[C@]4(C)[C@H]3C[C@H](O)[C@]12C)C(=O)N[C@H](C(=O)N[C@@H](Cc1ccccc1)C(=O)N[C@@H](Cc1ccccc1)C(=O)O)C(C)C
% Inhibition of Plateau; nucleation assay; 33 mole % [2]: 50% | Fold Increase in Lag Time; nucleation assay; 33 mole % [2]: 2.3 fold | % Inhibition of Plateau; nucleation assay; 10 mole % [3]: ~0% | % Inhibition of Plateau; nucleation assay; 100 mole % [3]: 100% | Fold Increase in Lag Time; nucleation assay; 10 mole % [3]: 2.1 fold | Fold Increase in Lag Time; nucleation assay; 33 mole % [3]: 2.6 fold | Fold Increase in Lag Time; nucleation assay; 100 mole % [3]: > 5 fold | % Iext'n; seeded extension assay; 25 mole % [4]: 56% | % Inucl'n; nucleation assay; 100 mole % [4]: 100% | ΔLag; nucleation assay; 100 mole % [4]: > 5 ratio

Second part, the binder after the results:

% Inhibition of Plateau; nucleation assay; 100 mole % [1]: 100% | Fold Increase in Lag Time; nucleation assay; 100 mole % [1]: > 4.5 fold
Binder: KLVFFAEDVGSNKGA [unmodified Aβ16-30]

% Inhibition of Plateau; nucleation assay; 100 mole % [1]: 76% | Fold Increase in Lag Time; nucleation assay; 100 mole % [1]: 1.66 fold
Binder: HDSGYEVHHQKLVFF [unmodified Aβ6-20]

% Inhibition of Plateau; nucleation assay; 100 mole % [1]: 47% | Fold Increase in Lag Time; nucleation assay; 100 mole % [1]: ~1 fold
Binder: EVHHQKLVFFAEDVG [unmodified Aβ11-25]

% Inhibition of Plateau; nucleation assay; 100 mole % [1]: ~0% | Fold Increase in Lag Time; nucleation assay; 100 mole % [1]: 0.8 fold
Binder: SNKGAIIGLMVGGVV [unmodified Aβ26-40]

% Inhibition of Plateau; nucleation assay; 100 mole % [1]: ~0% | Fold Increase in Lag Time; nucleation assay; 100 mole % [1]: ~1 fold
Binder: AEDVGSNKGAIIGLM [unmodified Aβ21-35]

— patent US7658917 (PRAECIS PHARMACEUTICALS, dated 2010)
